Molecular target: NBD-conjugated actin from α-skeletal muscle (F-actin) (UniProt P68135)
Experiment: NBD-F-actin fluorescence titration
Conditions: reference: unphosphorylated Tau(254–284) peptide; sites S262

Substance: Tau (2N4R) 254-284 (from UniProt P10636-8) pS262 Tau(254–284) peptide
- binding against the reference: weaker

Reference: article PMC5719408, “Multivalent cross-linking of actin filaments and microtubules through the microtubule-associated protein Tau” (Nature Communications, 2017)
